Source: a protein production outcome set (Wang et al. 2014)

test: label from the status in PepcDB records
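Note: failed if final PepcDB status was selected cloned or expressed and not failed if soluble or beyond.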

Q: For “MTFSANFSLVLPEVVLAIAALVLLVAGTFRGKVGAIFTLAAVASLIAAAATAVLGPKGVAFGGVYVADAAATYAKVAIYLSSAVAVVLGDRWLAQRGDQKFEYAVLVILAALGMGVTASAGDLISLYIGVELQSLALYVLAAMRRDDAKSSEAGLKYFVLGALSSGLLLYGSSLIYGFTGSTHFSQIALAAAHGGSHGVGLLFGLVFVICGLAFKVSAAPFHMWTPDVYEGAPTPVVGFFSAAPKLAAMMMFARVLGDAFPASEEQWRQILVIAALLSVFVGAFAGLAQSNLKRLWAYSSIANVGYALLGVAAGGEVGLQSMLIFMTLYMVDVTGFFACLQALNRDGKPMETIQDMAGLVKQRPGIALAMTAFSLSALGLPPFSGFWAKYFVFKAAMGSGDVMLQWAAVIGLVGSVVAAFYYLRLIKAMWFDDAAGAVDAPSPSARAVGFAAAIFSFPIVLVALVWLEPAAKAAAAAFGHA”, which protein production is on record?
A: Its protein production is “failed”.

Q: Which protein production does the source give for “MTFSKELREASRPIIDDIYNDGFIQDLLAGKLSNQAVRQYLRADASYLKEFTNIYAMLIPKMSSMEDVKFLVEQIEFMLEGEVEAHEVLADFINEPYEEIVKEKVWPPSGDHYIKHMYFNAFARENAAFTIAAMAPCPYVYAVIGKRAMEDPKLNKESVTSKWFQFYSTEMDELVDVFDQLMDRLTKHCSETEKKEIKENFLQSTIHERHFFNMAYINEKWEYGGNNNE” here?
A: Its protein production is “not failed”.

Q: Which protein production does the source give for “MTGGAAAAPPGRGAAFSWCLFDFANSGYPTVVATFVFSAYVTKAVAATPEAGTAAWGYAMGASGLLIALLAPIFGAVADHSGRRKPWLGLFSLLCVASTALMWTIRPDPAFLLAALVLAALSNAAFEIGGVFYNAMLPDVTTPERMGRLSGWAWGLGYAGGLACLVIALLALVQADPPPFGLDKAAAEPVRATLVLVALWFVVFGWPLFAFVPERPTGRVLALGAAARGAIDSLKGLPALFRGDPRLGWFLLARMLYTEGLNTLFAFGGIYAAGTFDMGFDQIIVFGIGLNITAGLGAFAFGWIDDWLGSPRTIVVGLIGLIGFCVAVLLVEDTAWFVGLALTMGIFFGPVQAASRTHIARVAPPDRRGELFGLFALTGKISAFAGPLAVGLATDLSGSQRLGMATVVVFLVAGLGLLVKTRAPRG” here?
A: Its protein production is “failed”.

Q: Which protein production does the source give for “MTGPTTDADAAVPRRVLIAEDEALIRMDLAEMLREEGYEIVGEAGDGQEAVELAELHKPDLVIMDVKMPRRDGIDAASEIASKRIAPIVVLTAFSQRDLVERARDAGAMAYLVKPFSISDLIPAIELAVSRFREITALEGEVATLSERLETRKLVERAKGLLQTKHGMTEPDAFKWIQRAAMDRRTTMKRVAEVVLETLGTPKDT” here?
A: The protein production was “not failed”.

Q: Which protein production does the source give for “MTGSWLETLLLPFTVPFLRDAMIIALLVAVPTALLSCFLVLKGWALMGDAISHAVLPGVVLAYVAGLPLGVGAFAAGLGCALVTGYLKDNSRIKQDTVMGVVFSGMFGLGIVLHTSIRTDVHLDHILFGDMLGVGSSDLLESGLIALLVVGAIALKGRDLLLHAFDPQQARAIGLPVGLLHYGLLCLLALTIVGALKATGILLTVALLIGPGAIAFLFTRRFSSMLLAAVVISSLASVLGVYISLFLDSAPAPTIVLLLTLTFIAAFMVSRQRDRQRARGVDRPV” here?
A: Its protein production is “failed”.

Q: For “MTGTSDDEEGKWKNRSTTLRRLGRQYSPDVTPEVASRRLKQWIVGNPVLLGLLHENGWTASRRVLTPKQVEQIVRVLGEP”, which protein production is on record?
A: Its protein production is “failed”.

Q: Which protein production does the source give for “MTGTSNIPTHGKEHKDAPALLPLPAPNPHHTHAAHPGNPSHDRPPSRGKLFIKTHGCQMNEYDSAKMADVLTTTEALELTDNPEEADIILINTCSIREKAQEKVFSQLGRWRALKTSGRDVIIGVGGCVASQEGEAIVKRAPYVDLVFGPQTLHRLPDMIRARREQNRPQVDIRFPEIEKFDHLPTPRAEGPSAFVSIMEGCSKYCSFCVVPYTRGEEVSRPFEDVLTEIAHLATQGVREINLLGQNVNAYRGAMDPGPSNNTNPAPPPYADLGLLIRAIAQFESIGRIRFTTSHPLEFSDSLVEAYRDVPQLANHLHLPVQSGSDRILSAMKRGYTALEFKSKIRKLRAVRPDISISSDFIIGFPGESDTDFQKTMQLIEDIGFDQSFSFIYSRRPGTPASNLEDHTPDEIKRTRLEHLQKHINTYAADISKRMIGTVQTVLVEGPSKKNPNELTGKTENMRPVNFPGHPRLIGQFIDVHITEALSNSLRGRVHTNLEHHHHHH” here?
A: The protein production was “not failed”.

Q: For “MTGYGKTFALLGTCATLLGPPLSAQTGSVLSDLQNEEVQARYRAAAAERIACPRIEGDAALMAAFAKDAASKWDRAAMGCATEYGARAMEALSLPTNLIWAVATFRTDNIETHLQVLGAHLDYFEVLDKSYSAHYQGIEMATELGLRWEQARERSETLMTRIDPLVPKLTEARLLRAAYLLASTLRETPPEVQNTAVAAALEDLQIAIAENPEALDGLGPLLLGQVLAVLPEFLGGDILAAIDLLEQAHALNPTDLSVHHTLVEAYLGERETDKALALLRHAASIDPSTENPQDYADEMKYLGGLALRAGAPDLARQMAGHRSAILAAHPQLDPRKEMAALGHGGADPLTGKKPDDLN”, which protein production is on record?
A: Its protein production is “failed”.

Q: Which protein production does the source give for “MTHETDQLYQAVQATRPLLRNITAAVERGTLREGVTVGQRAILEGLSLTPGATAPQLGAALQMKRQYISRILQEVQRAGLIERRTNPEHARSHRYWLTPRGEAIITAIRADEMAKLALFSEGFSSVELTAYHKVQLALTRFFADLAKEA” here?
A: The protein production was “not failed”.

Q: For “MTHTTANQVIHYVDQDGNTVFDDNDSQTLDYERSVTIDEVTGEITAYGDWKAVDGDEFGSVTSSDKPGYAIDKPVVSGEKPTITNGKDGKVSDVEVTVTYTALEHHHHHH”, which protein production is on record?
A: The protein production was “not failed”.

Q: Which protein production does the source give for “MTHVQTMLETYPKDLGDIDRAKLIECIKACFECAQTCTACADACLSEDMVAELTKCIRTNLDCADICVATGNMLSRHTGYDANVTRAVLEACRTVCKACADECEQHASMHEHCRACAEACRRCEKACADLLGSLG” here?
A: The protein production was “failed”.

Q: With “MTHVTLRSEFETLIDPYAPVAQVGTGFDFTEGPIWHPIDHYLLFSDMPGDVRRRWDARRGMAEVKRPSNKCNGMTYDAELNLIVCEHATSSLIRERPDGRREVLASHFGGQELNSPNDVCVHSSGAIYFSDPWYGRMPVYGVERPRQLGFQGVYRVMPGGEPKLVVDRNLFDQPNGLCFSPDERLLYVNDTVQALIRVFDVNADGTLSNARVFASSIKSELEPGLPDGMKCDQHGNVWVTAPGGVWVYSPRGELLGKVRVPELVANLAWGGPDFRTLYLTSTHSVYAIPTRVGPRHEPYMSGRRGGAGASAGPAAAAPILTDGEMRLDPQRCAMIIQDLQNDVIMDGGAFDGSGAPAHAKQQHVVENVRRLAEAARARGVAIIHVWFVVEPGAPGVTLNAPLFEGLVDSKAMVRGSWGAAPVSGLEPRPGDFVVEKMRMSAWEGTRLETILKATGRDMIINTGAWTNMSVEHTARTGADKGYFMIVPEDCCSTMNADWHSASINFAMQNVAIVTRADAVIRALGLEHHHHHH” as the sequence, how does the protein production read?
A: The protein production was “failed”.

Q: Which protein production does the source give for “MTIAVTGSIATDHLMRFPGRFSEQLLPEHLHKVSLSFLVDDLVMHRGGVAGNMAFAIGVLGGEVALVGAAGADFADYRDWLKARGVNCDHVLISETAHTARFTCTTDVDMAQIASFYPGAMSEARNIKLADVVSAIGKPELVIIGANDPEAMFLHTEECRKLGLAFAADPSQQLARLSGEEIRRLVNGAAYLFTNDYEWDLLLSKTGWSEADVMAQIDLRVTTLGPKGVDLVEPDGTTIHVGVVPETSQTDPTGVGDAFRAGFLTGRSAGLGLERSAQLGSLVAVLVLESTGTQEWQWDYEAAASRLAGAYGEHAAAEIVAVLA” here?
A: The protein production was “not failed”.

Q: Which protein production does the source give for “MTIIKYIKFVVIIVIVTIVFSCSKNEAGNSEYDPSLPISLTDFFPIQGGMATRMVIEGANFGTDLSQIKVFFNQKEASILNVKNSIIYLLVPKLPGNDCIVTVKVGNQEARFTRNFQYIENYSVTTIAGQPGTNLFVEGTLAAAQFGPVQHLAIDDENNLFITERNGSDGKGTCSVLNEESGTVTFLFKASDNLNVPTVNAQTQNVYIPLDGGYTFYELNPVNQWIAKSRLVLHPSKEQQEAGMDDFEINWKHSLAFSRYDNMIYTRSYGGDLIKVDPETRVGQKIGNFFPNTDSFIVAHPTQPEILYIAYAAKHVIYTYNIETGEHKLFAGAFGQSGWNDGIATDAEFNSPRQMSLDMEGNIYIADSGNHCIRMIDKNGIVTTPIGQPGEAGYADGSPDMALLNDPRGVAVNSEGDVYIADLGNRCIRKLTLQ” here?
A: The protein production was “failed”.

Q: For “MTIKQTDNINDDDLVYSNATDLPVGVKKSPKMSPTARVGLLVFGVIAAVGWGAIAFSRGETINSVWLVLAAVGSYIIAFSFYARLIEYKVVKPKDQRATPAEYVNDGKDYVPTDRRVLFGHHFAAIAGAGPLVGPVMAAQMGYLPGTLWIILGVIFAGAVQDYLVLWVSTRRRGRSLGQMVRDEMGTVGGAAGILATISIMIIIIAVLALIVVNALADSPWGVFSITMTIPIALFMGVYLRYLRPGRVTEVSIIGVALLLLAIVAGGWVADTSWGVEWFTWSKTTLALALIGYGIMAAILPVWLLLAPRDYLSTFMKIGVIGLLAVGILFARPEVQMPSVTSFALEGNGPVFSGSLFPFLFITIACGALSGFHALISSGTTPKLVEKESQMRMLGYGGMLMESFVAMMALITAVILDRHLYFSMNAPLALTGGDPATAAEWVNSIGLTGADITPEQLSEAAESVGESTVISRTGGAPTLAFGMSEILSGFIGGAGMKAFWYHFAIMFEALFILTTVDAGTRVARFMMTDTLGNVPGLRRFKDPSWTVGNWISTVFVCALWGAILLMGVTDPLGGINVLFPLFGIANQLLAAIALALVLVVVVKKGLYKWAWIPAVPLAWDLIVTMTASWQKIFHSDPAIGYWAQNANFRDAKSQGLTEFGAAKSPEAIDAVIRNTMIQGILSILFAVLVLVVVGAAIAVCIKSIRARAAGTPLETTEEPDTESEFFAPTGFLASSRDKEVQAMWDERYPGGAPVSSGGH”, which protein production is on record?
A: The protein production was “not failed”.

Q: For “MTIKRVGILGAGKVGIVLAGLALKAGYEVRISGSGSVDKIDLTISTLVPGAIASENAEVVANSDIIILAIPLSRYKNIDPTLLKGKLVIDAMNYWWETDGIREEVLDPTLTSSEQVQNYFKDSTIVKTFNHMGYHNLQEEALPKGDPKRKALFVTGDNHAAVDEVTKFVDSMGFDQVVHYKLTDGIMTEPGSPLFGASLKYQELKQIIDNFDHTDFGRKISSTLNLEHHHHHH”, which protein production is on record?
A: Its protein production is “not failed”.

Q: Which protein production does the source give for “MTIKVFSPKYPTELEEFYAERIADNPLGFIQRLDLLPSISGFVQKLREHGGEFFEMREGNKLIGICGLNPINQTEAELCKFHINSAYQSQGLGQKLYESVEKYAFIKGYTKISLHVSKSQIKACNLYQKLGFVHIKEEDCVVELGEETLIFPTLFMEKIL” here?
A: Its protein production is “failed”.

Q: For “MTINNDPMRDAIVDTAVELAAHTSWEAVRLYDIAARLAVSLDEIRLYFREKDELIDAWFDRADSRMLKEAESAGFLDLVASERIHHLIMIWLDALAVQRKVTRQMIMSKLEFGHIHIQIPAVMRVSRTVQWVREAAQRDATFMRRALEESTLTTIYLMTFFFWMRDESENSRHTRQFLKRHLTMAAWLGQKVYGKDPEKSTVPHKQQIPLQFD”, which protein production is on record?
A: Its protein production is “not failed”.

Q: With “MTIQQWLFSFKGRIGRRDFWIWIGLWFAGMLALFSLAGKNLLDIQTAAFCLVCLLWPTAAVMVKRLHDRGRSGAWALLMILAWMLLAGNWVMLPGMWQWVVGRFIPTLILVMMLIDLGAFVGVQGENKFGKATQDVKFKAEP” as the sequence, how does the protein production read?
A: Its protein production is “failed”.

Q: With “MTITILAFIIALFFAMNIGASGAAASMGIAYGAGAVRKRQAALWISGIGVFLGAMIGGGEVVKTIGSGIIPASILNVHIVVIILGSSAISLFIANIAGIPLSTSEVTVGSIVGVGVAFQAVFTDKLLVIVMYWLIIPIAAFFLAFLIGQLLKKTEAKLRWLKQQKWARLLTALVILTGFLEAFSAGMNNVANSVGPLVGAGLLSVGSGTFLGGLFVAIGAICLGSRVIETNGKKITEFSLLQGSCVSGLGASLVIGASLFGIPVPQTQITTCSIIGIGLSEKGRAIFRKSVILKLMKVWVVSPVFSLVISYSLVKIFLDFDLYSVAVVLCVFLATLGSISLMKHARQKQSDVRRNRDHVKSIVGGRGRKREPAAWRDF” as the sequence, how does the protein production read?
A: Its protein production is “failed”.

Q: Which protein production does the source give for “MTITTERGSQQYAYTDLPRLMGLMTGDEKHGPAATSTLDALWVLYDRVLRVAPERVDEPGRDRFLLSKGHGPMAYYAVLAAKGFLPVDWLPDFGSYDSPLGHHPDRVLVPGAEIGSGSLGHGLPIAVGTALGLRAQGLGEPRVWVLTGDAELDEGSNHEAIAYAGAAGLERLHTIVIDNSSATHALTGGIAARFEAAGWATTTVDGHDHEALHAAFTAPHEGRPLAVVARVRPKDA” here?
A: Its protein production is “failed”.
